# Measured values taken from patent publication US20210284691A1, “CBX8 CHROMDOMAIN INHIBITORS AND THE USES THEREOF” (Purdue Research Foundation, priority 2019, published 2021).
# Square brackets hold non-standard residues; d marks the D form. Primed or numbered codes have the meaning given here. Ends that are not written are not given here. * marks the point of attachment. triazole = triazole formed by click reaction joining the C-terminal propargylamide to 5/6-carboxyfluorescein; Isoxazole3carbonyl(5-Me) = Cc1cc(C(=O)*)no1; Tyr(3-Cl) = N[C@@H](Cc1ccc(O)c(Cl)c1)C(=O)O; Lys(Me3) = C[N+](C)(C)CCCC[C@H](N)C(=O)O; Lys(Et2) = CCN(CC)CCCC[C@H](N)C(=O)O; triazole″ = not defined here; PEG4′ = not defined here; NH(propargyl) = C#CCN*
# B1: KED97L-FL (peptide)
# peptide: {Isoxazole3carbonyl(5-Me)}-[Tyr(3-Cl)]VI[Lys(Et2)]S-{NH(propargyl)-triazole-5/6‑FAM}
# notes: also called 97L fluorescein derivative; KED97L (as measured)
# B2: SW2_152F-FL (library#77) (peptide)
# peptide: PI[Lys(Et2)]S
# modifications: not fully specified (C-terminus); also: Pro1 alpha-amino modified, group not given here (non-natural monomer)
# notes: also called fluorescein-conjugated SW2_152F
# B3: KED97 (peptide)
# peptide: {Isoxazole3carbonyl(5-Me)}-[Tyr(3-Cl)]VI[Lys(Me3)]S-NH2
# notes: Final PSL1 ligand with combined synthons
# B4: SW2_152F (peptide)
# peptide: PI[Lys(Et2)]S-{NH(propargyl)}
# modifications: also: Pro1 alpha-amino modified, group not given here, non-natural monomers
# notes: Non-derivatized ligand, used in the Thermal Shift Assay and in cells; also called CBX2i
# Experiments:
# [1] = target: T1, CBX7 chromodomain (CBX7 ChD), N-terminal His6-tagged recombinant protein (UniProt O95931 8-62, limits assumed); experiment: direct fluorescence titration of KED97L-FL; reference CBX8 ChD
# T1 construct: domain: chromodomain; not shown: N-terminal His6 tag
# T1 sequence (looked up): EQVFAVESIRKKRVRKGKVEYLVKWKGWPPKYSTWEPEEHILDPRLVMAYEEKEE
# [2] = target: T2, CBX8 chromodomain (CBX8 ChD), N-terminal His6-tagged recombinant protein (UniProt Q9HC52 8-61, limits assumed); experiment: direct fluorescence polarization, FAM-labelled ligand at 100 nM, ChD titrated
# T2 construct: domain: chromodomain; not shown: N-terminal His6 tag
# T2 sequence (looked up): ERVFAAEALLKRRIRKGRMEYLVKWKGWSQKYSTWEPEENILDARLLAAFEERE
# [3] = target: T3, CBX6 chromodomain (CBX6 ChD), N-terminal His6-tagged recombinant protein (UniProt O95503 8-65, limits assumed); experiment: as above
# T3 construct: domain: chromodomain; not shown: N-terminal His6 tag
# T3 sequence (looked up): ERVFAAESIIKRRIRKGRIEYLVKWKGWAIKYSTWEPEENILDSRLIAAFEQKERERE
# [4] = target: T4, CBX4 chromodomain (CBX4 ChD), N-terminal His6-tagged recombinant protein (UniProt O00257 8-65, limits assumed); experiment: as above
# T4 construct: domain: chromodomain; not shown: N-terminal His6 tag
# T4 sequence (looked up): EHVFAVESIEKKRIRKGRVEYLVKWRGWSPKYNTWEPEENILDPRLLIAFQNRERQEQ
# [5] = target: T1, CBX7 chromodomain (CBX7 ChD), …; experiment: as above
# [6] = target: T5, CBX2 chromodomain (CBX2 ChD), N-terminal His6-tagged recombinant protein (UniProt Q14781 9-66, limits assumed); experiment: as above
# T5 construct: domain: chromodomain; Expressed in E. coli and purified on Ni-NTA; not shown: N-terminal His6 tag
# T5 sequence (looked up): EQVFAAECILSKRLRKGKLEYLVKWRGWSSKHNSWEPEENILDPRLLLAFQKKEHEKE
# [7] = target: T2, CBX8 chromodomain (CBX8 ChD), …; experiment: direct fluorescence polarization, fluorescein-conjugated ligand
# [8] = target: T3, CBX6 chromodomain (CBX6 ChD), …; experiment: as above
# [9] = target: T2, CBX8 chromodomain (CBX8 ChD), …; experiment: direct fluorescence polarization; reference CBX2 ChD; CBX8 is the closest paralog by Table 3
# [10] = target: T2, CBX8 chromodomain (CBX8 ChD), …; experiment: competitive fluorescence polarization (FP) assay, displacement of the FITC-labelled probe
# [11] = target: T3, CBX6 chromodomain (CBX6 ChD), …; experiment: as above
# [12] = target: T4, CBX4 chromodomain (CBX4 ChD), …; experiment: as above
# [13] = target: T1, CBX7 chromodomain (CBX7 ChD), …; experiment: as above
# [14] = target: T5, CBX2 chromodomain (CBX2 ChD), …; experiment: as above
# [15] = target: T6, endogenous CBX7 (from cells / lysate) (human, UniProt O95931 1-251); experiment: chemoprecipitation from HEK293T nuclear lysate, immunoblot
# T6 sequence (looked up): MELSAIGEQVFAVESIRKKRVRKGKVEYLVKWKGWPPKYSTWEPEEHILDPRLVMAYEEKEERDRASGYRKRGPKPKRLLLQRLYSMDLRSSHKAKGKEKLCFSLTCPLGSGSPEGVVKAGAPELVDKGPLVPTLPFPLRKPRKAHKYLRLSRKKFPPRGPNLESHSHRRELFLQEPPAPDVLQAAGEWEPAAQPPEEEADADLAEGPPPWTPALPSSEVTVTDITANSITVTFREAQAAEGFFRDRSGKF
# [16] = target: T7, endogenous CBX6 (HEK293T nuclear lysate) (human, UniProt O95503 1-412); experiment: as above
# T7 sequence (looked up): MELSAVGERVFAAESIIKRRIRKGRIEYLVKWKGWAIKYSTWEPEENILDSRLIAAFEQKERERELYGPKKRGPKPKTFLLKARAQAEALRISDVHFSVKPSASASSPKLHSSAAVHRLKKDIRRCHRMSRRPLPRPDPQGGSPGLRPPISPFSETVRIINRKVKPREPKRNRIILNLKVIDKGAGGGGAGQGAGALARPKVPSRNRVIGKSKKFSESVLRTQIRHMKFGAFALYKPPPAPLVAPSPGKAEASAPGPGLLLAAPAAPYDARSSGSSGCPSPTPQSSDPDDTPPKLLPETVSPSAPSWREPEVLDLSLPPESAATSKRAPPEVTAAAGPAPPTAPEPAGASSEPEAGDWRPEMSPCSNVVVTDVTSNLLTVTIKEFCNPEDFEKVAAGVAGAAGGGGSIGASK
# [17] = target: T8, BRG1 (endogenous, HEK293T nuclear lysate) (human, UniProt P51532 1-1647); experiment: as above
# T8 construct: Non-specific control of the chemoprecipitation
# T8 sequence (P51532 whole entry): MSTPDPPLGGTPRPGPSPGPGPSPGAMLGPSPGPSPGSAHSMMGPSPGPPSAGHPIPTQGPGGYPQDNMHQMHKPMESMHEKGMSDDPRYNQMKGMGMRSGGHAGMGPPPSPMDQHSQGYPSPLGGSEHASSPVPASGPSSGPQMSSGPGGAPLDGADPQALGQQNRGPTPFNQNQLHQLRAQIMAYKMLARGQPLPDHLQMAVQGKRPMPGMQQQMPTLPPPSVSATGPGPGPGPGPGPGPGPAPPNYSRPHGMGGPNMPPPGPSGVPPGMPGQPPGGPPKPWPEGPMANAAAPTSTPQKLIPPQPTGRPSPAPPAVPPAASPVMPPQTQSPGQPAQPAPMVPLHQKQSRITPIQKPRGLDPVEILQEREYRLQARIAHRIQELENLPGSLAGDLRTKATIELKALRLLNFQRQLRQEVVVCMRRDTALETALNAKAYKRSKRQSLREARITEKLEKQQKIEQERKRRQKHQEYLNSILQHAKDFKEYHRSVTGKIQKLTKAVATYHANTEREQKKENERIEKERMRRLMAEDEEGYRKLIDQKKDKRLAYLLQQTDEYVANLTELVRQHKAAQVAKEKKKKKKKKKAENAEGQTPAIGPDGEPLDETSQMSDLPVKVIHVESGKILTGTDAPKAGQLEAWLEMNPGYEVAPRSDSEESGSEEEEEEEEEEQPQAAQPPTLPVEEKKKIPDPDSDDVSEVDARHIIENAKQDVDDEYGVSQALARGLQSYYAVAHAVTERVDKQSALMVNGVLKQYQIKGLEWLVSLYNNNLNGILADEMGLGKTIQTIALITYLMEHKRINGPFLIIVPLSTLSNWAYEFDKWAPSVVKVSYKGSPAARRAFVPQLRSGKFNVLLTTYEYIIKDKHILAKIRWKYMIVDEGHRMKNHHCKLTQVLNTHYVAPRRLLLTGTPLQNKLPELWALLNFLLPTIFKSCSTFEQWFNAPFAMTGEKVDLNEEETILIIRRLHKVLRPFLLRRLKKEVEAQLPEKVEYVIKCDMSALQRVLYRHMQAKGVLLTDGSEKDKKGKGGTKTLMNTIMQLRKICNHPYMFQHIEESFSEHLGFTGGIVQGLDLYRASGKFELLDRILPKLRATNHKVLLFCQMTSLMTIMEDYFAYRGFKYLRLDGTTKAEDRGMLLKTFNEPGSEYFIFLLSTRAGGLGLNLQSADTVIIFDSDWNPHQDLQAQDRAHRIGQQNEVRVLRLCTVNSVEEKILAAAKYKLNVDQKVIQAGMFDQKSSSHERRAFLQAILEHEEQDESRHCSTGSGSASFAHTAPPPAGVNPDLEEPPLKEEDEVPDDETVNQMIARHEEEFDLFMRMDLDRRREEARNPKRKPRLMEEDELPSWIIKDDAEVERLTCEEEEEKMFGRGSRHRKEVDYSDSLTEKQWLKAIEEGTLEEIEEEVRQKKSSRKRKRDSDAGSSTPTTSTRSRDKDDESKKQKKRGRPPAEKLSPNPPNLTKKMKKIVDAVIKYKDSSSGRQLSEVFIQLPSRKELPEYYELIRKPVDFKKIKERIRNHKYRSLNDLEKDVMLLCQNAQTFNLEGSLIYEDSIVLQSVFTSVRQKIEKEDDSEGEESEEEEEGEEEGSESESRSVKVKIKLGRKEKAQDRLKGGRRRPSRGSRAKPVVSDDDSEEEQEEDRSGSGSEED
# [18] = target: T9, endogenous CBX4 (HEK293T nuclear lysate) (human, UniProt O00257 1-560, limits assumed); experiment: as above
# T9 construct: Meant by 'any other paralogs' in the pulldown text
# T9 sequence (looked up): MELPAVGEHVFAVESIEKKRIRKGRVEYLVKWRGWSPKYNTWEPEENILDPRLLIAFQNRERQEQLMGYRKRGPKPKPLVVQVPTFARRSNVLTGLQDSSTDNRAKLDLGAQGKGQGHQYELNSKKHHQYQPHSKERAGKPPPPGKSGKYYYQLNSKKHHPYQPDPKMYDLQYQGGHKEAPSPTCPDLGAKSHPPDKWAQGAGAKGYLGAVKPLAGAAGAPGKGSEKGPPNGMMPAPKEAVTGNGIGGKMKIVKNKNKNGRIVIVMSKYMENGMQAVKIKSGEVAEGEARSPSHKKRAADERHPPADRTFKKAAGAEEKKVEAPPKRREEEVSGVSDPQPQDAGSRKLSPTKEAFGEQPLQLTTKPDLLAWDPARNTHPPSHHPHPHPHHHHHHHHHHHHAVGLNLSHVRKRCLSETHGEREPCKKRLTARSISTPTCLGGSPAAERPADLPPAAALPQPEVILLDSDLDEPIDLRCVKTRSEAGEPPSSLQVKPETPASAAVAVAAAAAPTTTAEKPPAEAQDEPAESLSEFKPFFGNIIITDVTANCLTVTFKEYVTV
# [19] = target: CBX7 chromodomain (CBX7 ChD), N-terminal His6-tagged recombinant protein (UniProt O95931); experiment: competitive fluorescence polarization, displacement of FITC-labelled probe
# [20] = target: CBX6 chromodomain (CBX6 ChD), N-terminal His6-tagged recombinant protein (UniProt O95503); experiment: as above
# [21] = target: CBX8 chromodomain (CBX8 ChD), N-terminal His6-tagged recombinant protein (UniProt Q9HC52); experiment: as above
# [22] = target: CBX2 chromodomain (CBX2 ChD), N-terminal His6-tagged recombinant protein (UniProt Q14781); experiment: competitive fluorescence polarization (FP) assay, displacement of the FITC-labelled probe
# [23] = target: CBX4 chromodomain (CBX4 ChD), N-terminal His6-tagged recombinant protein (UniProt O00257); experiment: as above
# [24] = target: T5, CBX2 chromodomain (CBX2 ChD), …; experiment: Thermal Shift Assay of the non-derivatized ligand
# [25] = target: T2, CBX8 chromodomain (CBX8 ChD), …; experiment: method not given
binder,measurement,setting,value
B1,selectivity for CBX8 ChD over CBX7 ChD (fold),[1],20 fold
same,Kd,[2],0.24 µM
same,Kd,[3],0.26 µM
same,Kd,[4],2.7 µM
same,Kd,[5],4.7 µM
same,Kd,[6],1.1 µM
B2,Kd,[7],1.9 µM
same,Kd,[8],9 µM
same,selectivity for CBX2 over the other paralogs (fold),[9],≥ 24 fold
B3,IC50,[10],9.5 µM
same,IC50,[11],4.4 µM
same,IC50,[12],49 µM
same,IC50,[13],60 µM
same,IC50,[14],21 µM
"PI[Lys(Et2)]S-{PEG4′-biotin} (also: Pro1 alpha-amino modified, group not given here, non-natural monomers) [SW2_152F-B (biotinylated SW2_152F)]",binding result,[15],no binding
same,binding result,[16],no binding
same,binding result,[17],no binding
same,binding result,[18],binds
"[Tyr(3-Cl)]PIK(trimethyl)S-NH2 (also: N-terminal acylation, acyl group not given here) [KED98 (PP)]",IC50,[19],83 µM
same,IC50,[20],34 µM
same,IC50,[21],14 µM
same,IC50,[22],46 µM
same,IC50,[23],173 µM
B4,Kd,[24],0.11 µM
{Isoxazole3carbonyl(5-Me)}-[Tyr(3-Cl)]VI[Lys(Et2)]S-{NH(propargyl)-triazole″-PEG2‑chloroalkane} (reading uncertain) [KED97L-CA (chloroalkane-modified KED97L)],Kd,[25],0.4 µM
